According to patent publication US12098378B2, “Anti-fungal polypeptides” (priority 2020, dated 2024):

What was measured:
Botrytis cinerea = assay: Control of Botrytis cinerea on strawberry, at harvest and postharvest; type: in vivo
Procedure: Four replicates of 20 strawberry plants ([…] per plot) were treated with 0.576 or 0.72 l of spray solution, corresponding with a spray volume of […], according to local practice. The spray mix contained a concentration of active ingredient as described in Table 7. Six applications were performed spaced 7 days apart. No artificial infection was performed and first spray was placed at the onset of flowering. The efficacy of 10G11 was compared to that of a non-treated control and the chemical reference Teldor (Fenhexamid). In addition, a chemical rotation of Switch (Cyprodinil+Fludioxonil), Teldor (Fenhexamid) and Scala (Pyrimethanil) was evaluated. A seventh treatment replaced part of the chemicals in this chemical rotation by 10G11 as described in Table 7.
Efficacy assessments were performed on fruits at harvest and the number and weight of healthy and diseased fruits was evaluated. Per plot, 50 healthy fruits were then placed into cold storage (2° C.) for two days, after which the postharvest assessment continued for 5 more days at ambient temperature ([…]). Botrytis incidence and severity on stored fruits was assessed at 0, 2 and 5 days at ambient storage.

Botrytis cinerea spores = assay: Microscopic time-lapse imaging of spores (mode of action); type: cell-based; details: IncuCyte time-lapse imaging (FIG. 14)
Excerpt: The action of 10G11 disrupting liposomes (Example 12), further underscores lysing of spores can be attributed to the action of 10G11.

Botrytis cinerea R16 = assay: In vitro antifungal assay, IncuCyte Zoom monitoring of fungal growth from spore suspension; type: cell-based; details: confluence at mid log growth, four-parameter logistic regression (FIG. 1); read-out: IC50, concentration that inhibits 50% of spore germination and/or mycelial growth
Procedure: (§1) Two-fold dilutions of purified VHH 10G11Q were prepared in 96-well microtiter plates. To 20 μl of these dilutions and to 20 μl of water as a control, 80 μl of fungal spore suspension (1 E+05 spores/ml in half strength potato dextrose broth (PDB)) were added, starting with a final VHH 10G11Q concentration of 10 μM. The test plates were incubated for 36 h at 25° C. using the IncuCyte Zoom live cell imaging system. All tests were performed in at least 2 replicates.
as §1, with “VHH 10G11Q and 41D01 were prepared” for “VHH 10G11Q were prepared”, “concentration of 40 μM. The” for “concentration of 10 μM. The”, “incubated for 48 h at” for “incubated for 36 h at”
Microplate graphs were generated using the time plot feature in the graph/export menu of the IncuCyte® Base Analysis Software. Raw data for confluence of treated samples at mid log growth were exported to GraphPad Prism 8 and plotted as a semi logarithmic function of the standard concentrations. IC50 values are extrapolated after fitting the data with a four-parameter logistic regression curve. Pathogen sensitivity is measured based on the IC50, which refers to the concentration (μM) that inhibits 50% of spore germination and/or mycelial growth.

Podosphaera xanthii = assay: Control of powdery mildew on cucumber in greenhouse; type: in vivo
Procedure: Four replicates of 10 plants per plot of cucumber plants (4 m^2 per plot) were treated with a spray volume between 1000 and 18751/ha depending on the crop height. The spray mix contained a concentration of active ingredient as described in Table 8. Eight applications were performed spaced 7 days apart. No artificial infection was performed and first spray was placed at the onset of flowering. The efficacy of 10G11 was compared to that of a non-treated control, a chemical reference Topaz (Penconazole), a biological reference Sonata (Bacillus pumilis strain QST 2808) in combination with the adjuvant Elasto G5 and a chemical rotation of Takumi (Cyflufenamid), Flint (Trifloxystrobin) and Topaz.
Efficacy assessments were performed on 40 leaves per plot, assessing the percentage of leaf area affected (PESSEV). Assessments were performed on a weekly basis and continued until two weeks after the last application.

B1: 10G11: VHH polypeptide, SEQ ID NO: 2, begins with a D residue (protein)
VHH: DVQLVESGGGLVQAGGSLRLSCAASRSIFSINAMDWYRQAPGKQREWVAGITRGGTTKYADSVKGRFTISRDNAKKKVYLQMNSLKPEDTAVYYCNVLRGEQPWTRDYWGQGTQVTVSS
- Botrytis infected strawberry fruits at harvest (Botrytis cinerea; 250, 500, 750 g ai/ha, 6 applications in the field during flowering (FIG. 26)): reduced incidence of Botrytis at harvest
- Botrytis severity on strawberry fruits in postharvest (Botrytis cinerea; stored fruits, 2 days at 2° C. then 0, 2 and 5 days at ambient storage (FIG. 27)): dose-related reduction of Botrytis severity on stored fruits
- spore lysis (loss of structural integrity) (Botrytis cinerea spores): substantial portion of spores are also lysed
- spore outgrowth (Botrytis cinerea spores): inhibited in commencing spore outgrowth
- IC50 (Botrytis cinerea R16): 760 ± 100 nM
- severity (PESSEV) of powdery mildew on cucumber (Podosphaera xanthii; 125, 250, 500 g ai/ha LWA, until 1 week after the seventh application (FIG. 28)): clear and dose-related performance
- severity (PESSEV) of powdery mildew on cucumber (Podosphaera xanthii; from the eighth application, very severe disease pressure (FIG. 28)): Performance decreased
